The values below come from publication PMC3220798 (2011).

In one data set the target is PvdL module 1 (PvdLM1) (Pseudomonas aeruginosa, UniProt Q9I157). As to the kind of experiment: ATP/[…]-pyrophosphate exchange assay. The format is biochemical.
In data set [1] the test system is CCCCCCCCCCCC(=O)Oc1ccc2c(C)cc(=O)oc2c1. As to the kind of experiment: purified protein.
Data set [2] relates to CCCCCCCCCCCC(=O)Oc1ccc([N+](=O)[O-])cc1. As to the kind of experiment: purified protein.
For data set [3], the system named is CCCCCCCCCCCCCC(=O)Oc1ccc([N+](=O)[O-])cc1. Nature of the data set: purified protein. Particulars: myristate bound to Serβ[…].
Data set [4] has as its target T1, PvdQ (Pseudomonas aeruginosa, UniProt Q9I194). Nature of the data set: crystal structure, co-purified ligand. The format is binding.
Data set [5] concerns the target T1, PvdQ. As to the kind of experiment: co-crystal structure. Format: biochemical.

T1 sequence (Q9I194 24-193): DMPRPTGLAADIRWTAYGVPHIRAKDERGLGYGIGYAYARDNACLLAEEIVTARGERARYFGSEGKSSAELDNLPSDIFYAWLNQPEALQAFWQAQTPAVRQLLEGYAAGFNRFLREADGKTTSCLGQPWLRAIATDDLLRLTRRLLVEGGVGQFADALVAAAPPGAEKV
T1 sequence (Q9I194 217-762): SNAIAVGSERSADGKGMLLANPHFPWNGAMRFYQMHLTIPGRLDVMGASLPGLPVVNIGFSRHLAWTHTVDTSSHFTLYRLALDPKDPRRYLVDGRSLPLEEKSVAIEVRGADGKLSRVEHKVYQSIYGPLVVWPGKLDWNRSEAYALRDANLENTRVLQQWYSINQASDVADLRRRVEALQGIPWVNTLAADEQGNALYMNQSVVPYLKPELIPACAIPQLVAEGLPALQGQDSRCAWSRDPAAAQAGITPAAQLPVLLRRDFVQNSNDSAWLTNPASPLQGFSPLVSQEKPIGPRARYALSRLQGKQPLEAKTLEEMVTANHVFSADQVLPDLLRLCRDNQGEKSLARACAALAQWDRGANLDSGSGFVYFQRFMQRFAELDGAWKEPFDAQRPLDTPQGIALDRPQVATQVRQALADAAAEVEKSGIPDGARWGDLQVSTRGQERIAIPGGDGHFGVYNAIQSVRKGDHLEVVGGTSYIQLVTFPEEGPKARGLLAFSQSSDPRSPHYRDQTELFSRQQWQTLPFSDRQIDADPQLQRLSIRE

Take `CCCCCCCCCCCCCC(=O)O` [C14, myristate]: the “CPM (×10^3) ^a” value at PvdL module 1 (PvdLM1) was 160.0 ± 14.1 CPM (×10^3).
PvdQ (Pseudomonas aeruginosa PAO1): in data set [1], the Michaelis constant (Km) came to 750 µM, the kcat turned out to be 1.24 s⁻¹ and the kcat/Km stood at 1660 M⁻¹ s⁻¹. Further, in data set [2], the Km worked out at 11400 µM, the kcat turned out to be 1.99 s⁻¹ and the specificity constant (kcat/Km) was 175 M⁻¹ s⁻¹. In addition, in data set [3], the Michaelis-Menten constant (Km) is 1400 µM, the kcat came to 0.74 s⁻¹ and the specificity constant (kcat/Km) is 521 M⁻¹ s⁻¹.
Consider `CCCCCCCC(=O)O` [octanoate], for which the “crystal structure, co-purified ligand” value on PvdQ [4] is “co-purifying octanoate molecule bound non-covalently in the fatty acid binding pocket”.
`O=c1onc2n1-c1cc(Br)ccc1OC2` [compound 922, 4H-8-Bromo-1,2,4-oxadiazolo[3,4-d]benz[b][1,4]oxazin-1-one]: the half-inhibitory concentration (IC50) against PvdQ [5] amounted to 145 µM.
